Sequences and labels used below:
B1: TPR t1 (parent)
chain: GACCAAUCUGCCCUCAGAGCUCGAGAACAUCUUCGGAUGCAGAGGAGGCAGGCUUCGGUGGCGCGAUAGCGCCAACGUCCUCAACCUCCAAUGCAUCCCACCACAUGAUGAUGCCUGAAGAGCCUUGGUUUUUUG

The series covers variants of B1. Briefly: polymerase ribozyme fitness, log enrichment relative to wild type (log ratio); higher = more active; in vitro selection for triplet polymerase activity. The gist of the method: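 Mutant libraries were PCR-built and transcribed for each subunit of a heterodimeric triplet polymerase ribozyme and selected for one round in triplicate at −7 °C, frozen, before gel excision of extended constructs and streptavidin-bead capture. Input and output libraries were Illumina-sequenced, keeping genotypes with ≥10 input reads and ≥1 read per output. Fitness is a logarithmic ratio of genotype to wild-type enrichment, in base 2, using inverse-variance-weighted replicate averages.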
Consider A24U G61U, for which the “polymerase ribozyme fitness (log ratio)” value is -6.34.

With A24G G120U, the “polymerase ribozyme fitness (log ratio)” value is -1.65.

In the case of A26C G60C, the “polymerase ribozyme fitness (log ratio)” value is -6.06.

For C28G C40A C94U G110C, the “polymerase ribozyme fitness (log ratio)” value was -0.668.

For the variant G23C G60A G77C C98G A119U, the “polymerase ribozyme fitness (log ratio)” value is -7.44.

G25U G61U: the “polymerase ribozyme fitness (log ratio)” value is -5.8.

On to A24C G61A, for which the “polymerase ribozyme fitness (log ratio)” value was -6.26.

Consider C28A G45A, for which the “polymerase ribozyme fitness (log ratio)” value is -5.12.

Turning to A26U C62U, the “polymerase ribozyme fitness (log ratio)” value is -3.59.

Consider A27U G135C, for which the “polymerase ribozyme fitness (log ratio)” value was -3.11.

For the variant A27U G47U C56U, the “polymerase ribozyme fitness (log ratio)” value was -4.13.

On to C28G A83G, for which the “polymerase ribozyme fitness (log ratio)” value is -3.41.

Regarding A26U G42C C62U C70A C88U G117U, the “polymerase ribozyme fitness (log ratio)” value is -6.33.

As to A26C A43G G63C G69A C115G, the “polymerase ribozyme fitness (log ratio)” value was -4.47.

Regarding A24G G57A U78C C101A, the “polymerase ribozyme fitness (log ratio)” value is -4.85.

For A26G G61A C82A U112A U131C, the “polymerase ribozyme fitness (log ratio)” value was -0.172.

A26G C40U G63C C79A C101U G117A: the “polymerase ribozyme fitness (log ratio)” value was -5.91.

Consider A27U A50C, for which the “polymerase ribozyme fitness (log ratio)” value was -3.87.

Regarding A24C G35A U55G C115U G127U, the “polymerase ribozyme fitness (log ratio)” value is -6.12.

As for A26G G113U, the “polymerase ribozyme fitness (log ratio)” value was -4.2.

Regarding G25A C72A C86G, the “polymerase ribozyme fitness (log ratio)” value was -6.66.

For A27G U54C C80U A84U, the “polymerase ribozyme fitness (log ratio)” value was -2.61.

Turning to G23C G69C C94G U96A G113U G120C, the “polymerase ribozyme fitness (log ratio)” value is -7.12.

On to A24G U55G C64U, for which the “polymerase ribozyme fitness (log ratio)” value was -1.64.

Turning to C28A A83U, the “polymerase ribozyme fitness (log ratio)” value is -2.16.

On to A27G U59C A68G C99U U112A, for which the “polymerase ribozyme fitness (log ratio)” value is -5.37.

Consider A27G G128C, for which the “polymerase ribozyme fitness (log ratio)” value is -4.95.

Regarding A27G G52A C79U, the “polymerase ribozyme fitness (log ratio)” value is -2.15.

Turning to A24G G57C A91G, the “polymerase ribozyme fitness (log ratio)” value was -2.98.

Consider A27G C49G C64U, for which the “polymerase ribozyme fitness (log ratio)” value is -2.51.

A27U A46G: the “polymerase ribozyme fitness (log ratio)” value is -2.59.

Regarding G25A G47A C72G C76U U87G C114G, the “polymerase ribozyme fitness (log ratio)” value is -5.41.

Consider C28A C62A, for which the “polymerase ribozyme fitness (log ratio)” value is -5.73.

A27U C28G G110C: the “polymerase ribozyme fitness (log ratio)” value was -4.

As for A26U G71C U131A, the “polymerase ribozyme fitness (log ratio)” value was -4.6.

With G23U G58A G60C G120C, the “polymerase ribozyme fitness (log ratio)” value is -7.23.

For the variant A26U G60U U78C, the “polymerase ribozyme fitness (log ratio)” value is -3.09.

As to A26U G122A G127U U133G, the “polymerase ribozyme fitness (log ratio)” value was -4.8.

For the variant A27C G61U, the “polymerase ribozyme fitness (log ratio)” value was -3.27.

Consider A26U U129G, for which the “polymerase ribozyme fitness (log ratio)” value was -3.51.

As to A27G C34U, the “polymerase ribozyme fitness (log ratio)” value was -4.85.

Take A24G A26G A90C C115U: the “polymerase ribozyme fitness (log ratio)” value is -2.12.

With A26U G35U C53U U112C C114U G117A, the “polymerase ribozyme fitness (log ratio)” value was -7.18.

A26G A74C C88A C115U: the “polymerase ribozyme fitness (log ratio)” value is -2.88.

As to A26C G39C C104U U106A G120A, the “polymerase ribozyme fitness (log ratio)” value was -5.96.

As for A26U G48U, the “polymerase ribozyme fitness (log ratio)” value is -3.85.

As for A24G U38G C56A C80A, the “polymerase ribozyme fitness (log ratio)” value was -5.92.

Consider A24G C97U G120U, for which the “polymerase ribozyme fitness (log ratio)” value was -2.28.

For the variant G25U C56A, the “polymerase ribozyme fitness (log ratio)” value is -4.45.

For the variant G23C C70A G113U G117C, the “polymerase ribozyme fitness (log ratio)” value is -6.09.

For C28A U112C U116G U130A U132C, the “polymerase ribozyme fitness (log ratio)” value was -5.19.

For the variant A24U G61U A91G G120U C124U G135A, the “polymerase ribozyme fitness (log ratio)” value was -6.15.

With A27G A37G G57C U96G C115A, the “polymerase ribozyme fitness (log ratio)” value is -5.8.

For the variant A26U A66G U112G, the “polymerase ribozyme fitness (log ratio)” value was -5.69.

As to G25C A46G C70U C85G, the “polymerase ribozyme fitness (log ratio)” value is -6.39.

With A26G C34U C85U C124G, the “polymerase ribozyme fitness (log ratio)” value was -2.34.

For A26U U130A, the “polymerase ribozyme fitness (log ratio)” value was -3.88.

Take A27U U78C: the “polymerase ribozyme fitness (log ratio)” value was -2.98.

As to A26C G39U C124G, the “polymerase ribozyme fitness (log ratio)” value is -4.33.

Take A27U C62A C101U A119U: the “polymerase ribozyme fitness (log ratio)” value is -5.17.

For the variant A26U G51A C64U A91U G120A C124G, the “polymerase ribozyme fitness (log ratio)” value is -6.85.

For A24U U112A, the “polymerase ribozyme fitness (log ratio)” value was -4.52.

Take G25C A29G C64A C79G A90C G117U A119G: the “polymerase ribozyme fitness (log ratio)” value is -7.04.

In the case of A24G C40U G71A C114A, the “polymerase ribozyme fitness (log ratio)” value is -5.13.

As to G25A C62A C86U C102U G120C, the “polymerase ribozyme fitness (log ratio)” value was -7.36.

Turning to C28A G110A, the “polymerase ribozyme fitness (log ratio)” value was -0.364.

With A26G G61C C86U, the “polymerase ribozyme fitness (log ratio)” value was -4.37.

For A26G A50G C56G A74G C82G, the “polymerase ribozyme fitness (log ratio)” value was -4.41.

Turning to A24G G60A C80U C88A, the “polymerase ribozyme fitness (log ratio)” value is -4.67.

In the case of A24G G58U G61C, the “polymerase ribozyme fitness (log ratio)” value was -1.68.

In the case of A27U U32A C72U C114A, the “polymerase ribozyme fitness (log ratio)” value is -5.96.

In the case of A27G C72U C101A C104A, the “polymerase ribozyme fitness (log ratio)” value was -4.48.

Take A24C G36U A37U G42U G61A C79A G110C C123U: the “polymerase ribozyme fitness (log ratio)” value was -7.34.

On to A26G G36A A108U C123G, for which the “polymerase ribozyme fitness (log ratio)” value was -5.15.

On to A26U A37C G77A C124G, for which the “polymerase ribozyme fitness (log ratio)” value is -1.36.

Consider A26U C62U U129A, for which the “polymerase ribozyme fitness (log ratio)” value was -5.15.

On to A26C G117U A119U, for which the “polymerase ribozyme fitness (log ratio)” value is -7.54.

Turning to A24G A41C A46U C53A U125A, the “polymerase ribozyme fitness (log ratio)” value is -4.79.

As to A24G A27G, the “polymerase ribozyme fitness (log ratio)” value is -4.03.

Regarding A26G C89G, the “polymerase ribozyme fitness (log ratio)” value was -3.55.

A26G C89U: the “polymerase ribozyme fitness (log ratio)” value was -2.94.

Take A26U A83C: the “polymerase ribozyme fitness (log ratio)” value is -3.24.

Consider A27U C70A C115G U130G, for which the “polymerase ribozyme fitness (log ratio)” value is -6.2.

The values are drawn from the RNAGym collection of RNA variant scans (doi:10.1073/pnas.2313332121).
